Earlier results in paper PMC5540906.
Values joined by “and” are separate entries in the source; they are usually repeats but may differ in a detail not shown here. Identical values can stand only once.

Legend:
[1] = target: ClpP tetradecamer (Escherichia coli) (UniProt P0A6G7); assay: activity measurements
[2] = target: DnaK (Thermus thermophilus) (UniProt Q72IK5)
UniProt Q72IK5, sequence (Q72IK5 whole entry): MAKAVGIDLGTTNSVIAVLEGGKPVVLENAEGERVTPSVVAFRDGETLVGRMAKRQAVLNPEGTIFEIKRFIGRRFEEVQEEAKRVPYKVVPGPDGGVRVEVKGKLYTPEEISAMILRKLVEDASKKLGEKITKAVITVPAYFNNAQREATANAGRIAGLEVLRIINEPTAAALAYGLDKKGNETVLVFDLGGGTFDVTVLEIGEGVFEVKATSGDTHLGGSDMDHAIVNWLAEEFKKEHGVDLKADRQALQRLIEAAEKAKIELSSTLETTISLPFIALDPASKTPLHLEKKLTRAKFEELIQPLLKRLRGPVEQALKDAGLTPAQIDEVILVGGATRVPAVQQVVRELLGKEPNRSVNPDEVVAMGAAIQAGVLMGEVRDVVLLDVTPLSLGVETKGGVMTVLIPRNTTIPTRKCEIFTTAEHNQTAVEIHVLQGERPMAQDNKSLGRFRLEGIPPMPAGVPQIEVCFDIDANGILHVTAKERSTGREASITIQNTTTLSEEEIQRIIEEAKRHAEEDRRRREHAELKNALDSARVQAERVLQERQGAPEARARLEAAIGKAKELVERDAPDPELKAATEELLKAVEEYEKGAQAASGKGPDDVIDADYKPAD

UniProt P0A6G7, sequence (P0A6G7 15-207): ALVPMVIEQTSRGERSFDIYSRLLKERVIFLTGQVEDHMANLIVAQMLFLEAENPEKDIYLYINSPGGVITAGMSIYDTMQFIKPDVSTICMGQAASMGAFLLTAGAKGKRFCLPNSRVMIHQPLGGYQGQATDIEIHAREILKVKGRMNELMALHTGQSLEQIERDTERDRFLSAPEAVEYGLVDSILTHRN

Substance	Kd [1]	Kd [2]
ClpA hexamer (from UniProt P0ABH9)	0.004 µM	
ClpB (from UniProt Q72IK9)		17 µM and 25 µM
